The subject of the test is primary human monocyte cells. In words: Antibody internalization (pHrodo Red, flow cytometry). It is filed as cell-based. As to conditions: pHrodo-labeled antibodies 10 μg/mL, 2 hours at 37° C. The method, then: Exemplified anti-human CD33 antibodies were labeled with pHrodo™ Red, amine-reactive dye (Thermo Fisher, P36014). The pH-sensitive dye was a non-fluorescent when outside the cells but fluoresces brightly in acidic low-pH lysosomes. This property allows visualization and qualification of the internalization of an antibody by flow cytometry. Human PBMCs (500 K/well) were incubated on ice in FACS buffer for 30 min, to quiesce baseline internalization. Cells were stained with pHrodo-labeled antibodies (10 μg/mL) in FACS buffer for 1 hour on ice then transferred to 37° C. for 2 hours. Cells were then stained with the remaining panel of surface detection marker: CD45 mAb (clone HI30); CD11b (clone ICRF44); CD14 (clone M5E2).
(In general: In flow cytometry, cells or beads pass a laser one at a time.)

B1: Gemtuzumab: Gemtuzumab (hIgG4PAA), comparator anti-CD33 antibody in the internalization assay (antibody, chains of the INN, looked up, V domains shown)
VH: EVQLVQSGAEVKKPGSSVKVSCKASGYTITDSNIHWVRQAPGQSLEWIGYIYPYNGGTDYNQKFKNRATLTVDNPTNTAYMELSSLRSEDTAFYYCVNGNPWLAYWGQGTLVTVSS
VL: DIQLTQSPSTLSASVGDRVTITCRASESLDNYGIRFLTWFQQKPGKAPKLLMYAASNQGSGVPSRFSGSGSGTEFTLTISSLQPDDFATYYCQQTKEVPWSFGQGTKVEVK
modifications: hIgG4PAA
notes: Gemtuzumab (hIgG4PAA), comparator anti-CD33 antibody in the internalization assay
Consider B1, for which the “% Internalization” value turned out to be 50.55 ± 2.899%. In addition, the “% Internalization” value (listed as Gemtuzumab (hIgG4PAA)) is on record as “about 50%”.
